Here are results for nine molecules from patent publication US20210171624A1 (ELIXIRON IMMUNOTHERAPEUTICS HONG KONG, published 2021).

The target in assay [1] is T1, recombinant human IFN-γ protein (human, UniProt P01579 24-166, limits assumed).
T1 sequence: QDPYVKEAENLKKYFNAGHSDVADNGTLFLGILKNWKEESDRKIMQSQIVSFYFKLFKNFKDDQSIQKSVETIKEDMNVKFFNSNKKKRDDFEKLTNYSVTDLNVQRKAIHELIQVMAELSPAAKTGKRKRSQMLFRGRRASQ
The experiment in a line: ELISA, biotinylated human IFN-γ on streptavidin plate, HRP anti-human IgG, OD 450-650 nm. On the procedure: (§1) Recombinant human IFN-γ (R&D systems 285-IF-100) and Cynomolgus IFN-γ (R&D systems 961-RM-025) were biotinylated according to kit manual (EZ-Link NHS-LC-Biotin; Thermo #21336) and bound to streptavidin coated plate respectively. After incubated at room temperature for 1-2 hours, the plate was washed three times with 300 μL wash buffer. Serial dilutions of anti-IFN-γ antibody were added to wells. After incubated at room temperature for 1-2 hours, the plate was washed three times with 300 μL wash buffer. HRP anti-Human IgG was applied to each well at room temperature for 1 hour incubation. After washing, the plates were developed with TMB substrate, and analyzed under OD₄₅₀₋₆₅₀.
A general note: In an ELISA, binding on a coated surface is turned into a signal by an enzyme label.

Assay [2] has as its target T1, recombinant human IFN-γ protein. Nature of the assay: BLI (Octet RED96), mAb captured on AHC biosensor, recombinant human IFN-γ in solution, 1:1 model; second experiment. As for the experimental part: (§2) Antibody-binding kinetic rate constants (kₐ and kd) were measured by Bio-Layer Interferometry (BLI, ForteBio Octet RED96). […] Rate constants were calculated by curve fitting analyses (1:1 Langmuir model) of binding response with a 5-minute association and 15-minute dissociation interaction time.
A general note: Biolayer interferometry detects binding as a change in optical thickness at a sensor tip.

Assay [3] shares this target. Nature of the assay: cell-based or functional assay.
The target of the next assay is T2, bovine serum albumin (bovine, UniProt P02769 25-607).
T2 construct: also called BSA
The experiment in a line: ELISA, plate coated with 2 µg/mL BSA, anti-human IgG Fc-AP detection, OD 405 nm. As for the experimental part: A clear polystyrene 96-well, flat-bottomed plate (Nunc) was coated with 100 μL of recombinant human IFN-γ protein (2 μg/mL) or BSA (2 μg/mL) in bicarbonate buffer (pH 9.6) per well and incubated at 4° C. overnight. The plate was washed three times using phosphate-buffered saline (PBS) with 0.05% Tween 20 and then blocked with 5% human normal serum albumin (Aventis) in PBS for 2 hours at 25° C. The plate was washed again using PBS with 0.05% Tween 20, after which each of 1E8, 2F2, 2A6, 2B6, AB and BA mAbs in two different concentrations of 1 μg/mL and 0.1 μg/mL were added into the wells of the plate for binding with the recombinant human IFN-γ protein, followed by reaction at 25° C. for 2 hours. The plate was thoroughly washed using PBS with 0.05% Tween 20, and then Fc-specific alkaline phosphatase-conjugated AffiniPure Goat anti-human IgG (Cappel) was added at a dilution ratio of 1:2500. The plate was placed for 90 minutes at 37° C. and then washed five times using PBS with 0.05% Tween 20. After adding p-Nitrophenyl phosphate (pNPP) solution (100 μL/well), the plate was placed at 37° C. for 30 minutes. Absorbance was determined at OD405 nm with a VICTOR X3 Multilabel Plate Reader (PerkinElmer).

Assay [4] has as its target T1, recombinant human IFN-γ protein. Nature of the assay: BLI (Octet RED96), mAb captured on AHC biosensor, recombinant human IFN-γ in solution, 1:1 model. As for the experimental part:
as §2

The target of assay [5] is T3, rhesus macaque/cynomolgus IFN-γ (rhesus macaque/cynomolgus, UniProt P63310 24-165).
T3 construct: also called R&D systems 961-RM-025
T3 sequence (looked up): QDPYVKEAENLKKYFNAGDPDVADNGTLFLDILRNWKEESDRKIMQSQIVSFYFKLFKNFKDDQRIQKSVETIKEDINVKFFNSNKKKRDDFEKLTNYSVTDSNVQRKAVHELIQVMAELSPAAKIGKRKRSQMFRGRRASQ
Nature of the assay: ELISA, biotinylated rhesus macaque/cynomolgus IFN-γ on streptavidin plate, HRP anti-human IgG, OD 450-650 nm. On the procedure:
as §1

Substitutions are numbered along the chain they refer to.

T2 sequence (P02769 25-607 limits assumed): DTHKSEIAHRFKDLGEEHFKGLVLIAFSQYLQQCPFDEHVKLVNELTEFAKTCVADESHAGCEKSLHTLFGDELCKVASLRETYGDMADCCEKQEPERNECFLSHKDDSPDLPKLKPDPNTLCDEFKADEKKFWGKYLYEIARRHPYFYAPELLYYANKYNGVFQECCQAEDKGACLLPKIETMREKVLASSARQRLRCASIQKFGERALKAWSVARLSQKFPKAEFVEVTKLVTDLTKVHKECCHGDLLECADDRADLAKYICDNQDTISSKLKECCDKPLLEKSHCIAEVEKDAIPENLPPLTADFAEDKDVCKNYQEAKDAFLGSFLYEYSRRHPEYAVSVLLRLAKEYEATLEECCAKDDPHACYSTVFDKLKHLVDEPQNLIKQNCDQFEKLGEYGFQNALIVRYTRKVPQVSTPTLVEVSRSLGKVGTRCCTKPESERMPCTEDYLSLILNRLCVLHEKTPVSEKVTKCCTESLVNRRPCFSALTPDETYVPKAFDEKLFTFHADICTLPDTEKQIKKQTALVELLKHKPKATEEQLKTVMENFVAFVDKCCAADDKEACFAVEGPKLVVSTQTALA

Usually EC50 (read off the curve) stands for the concentration needed to bring the measured effect to its halfway point. For orientation: Kd means a measure of binding affinity in units of concentration. In general, koff refers to the first-order rate constant of dissociation. The kon is a measure of how fast the partners come together. On to AMG811 (antibody), for which the EC50 (read off the curve) in assay [1] turned out to be 5 ng/mL. In addition, in assay [2], the Kd is 0.0347 nM, the koff was determined as 8.59e-05 s⁻¹ and the kon is 2.48e+06 M⁻¹ s⁻¹.

B1: antibody 2F2 (antibody, human IgG1, V domains shown)
VH: EVQLVESGGGLVKPGESLRLACVASGFNFSDYYMTWIRQAPGKGLEWVSYISNSGSHTYYADAVKGRFTVSRDNAKNSLYLQMTSLRGEDTAIYFCARDPSIMRGTYYMDVWGKGTTVTVSS
VL: QSVLTQPPSASGTPGQRVTISCSGSSSNIGTNPVSWYQQFPGMAPKLLIYFNNQRPSGVPERFSGSKSGTPASLAIGGLQSEDEANYYCASWDDTLNGLVFGGGTKLTVL
notes: Human IgG1 lambda
In the case of B1, in assay [3], the “IC50, inhibition of IFN-γ induced HLA-DR expression on THP-1 cells” value (“IC50, inhibition” below) was 36.1 ng/mL and the “IC90, inhibition of IFN-γ induced HLA-DR expression on THP-1 cells” value (“IC90, inhibition” for short) came to 508 ng/mL. In addition, the binding result in the assay with bovine serum albumin was “no binding (tested: 1.0 µg/mL)”. In assay [4], the Kd came to 0.317 nM, the koff worked out at 0.000109 s⁻¹ and the kon worked out at 344000 M⁻¹ s⁻¹.

B2: antibody 2B6 (antibody, human IgG1, V domains shown)
VH: EVQLVESGGGLVKPGGSLRLSCAASGFPFSRYSMHWVRQAPGKGLEWVSSMTSRTNHKYYADSLKGRFLISRDNDRDSLYLEMNSLGVEDTAIYFCARGYDTSGSDSGVDFQYWGQGTLVTVSS
VL: NFMLTQPHSVSESPGKTITISCTRGRGYIASYYVQWYQQRPGGVPKIVVFEDTQRPSGVPDRISGSIDTSTNSASLTISGLQTEDEADYYCQSYDDANHVIFGGGTKLTVL
notes: Human IgG1 lambda
For the molecule B2, in assay [3], the “IC50, inhibition” value came to 3.5 ng/mL and the “IC90, inhibition” value was determined as 1020 ng/mL. In the assay with bovine serum albumin, the binding result was “no binding (tested: 1.0 µg/mL)”. In addition, in assay [4], the Kd came to 0.0731 nM, the koff turned out to be 0.000108 s⁻¹ and the kon was determined as 1.48e+06 M⁻¹ s⁻¹. For the same molecule, in assay [1], the “EC50 (read off the curve)” value is approximately 7 ng/mL. Further, in assay [2], the Kd came out at 0.0172 nM, the dissociation rate constant (koff) came out at 5.4e-05 s⁻¹ and the kon is 3.13e+06 M⁻¹ s⁻¹. For the same molecule, the “EC50 (read off the curve)” value in assay [5] is approximately 5 ng/mL.

B3: antibody 1E8 (antibody, human IgG1, V domains shown)
VH: EVQLLESGGGLVQPGGPLRLSCAASGFTFSIYSMNWVRQAPGKGLEWVSSISGSGDNTYYADSVKGRFTITRDSSKNTLYLQMNTLRAEDTAVYFCAKSGRNIISPGFDSWGQGTLVTVSS
VL: QPVLTQPPSASASLGASVTLTCTLNSDYGDYKVDWYQQRPGKGPRFVMRVGTGGIVGSKGDGIPDRFSVLGSGLNRFLTIKNIQEEDESDYYCGADHGSANNFIWVFGGGTKLTVL
notes: Human IgG1 lambda
With B3, in assay [3], the “IC50, inhibition” value is 8.6 ng/mL and the “IC90, inhibition” value worked out at 48.6 ng/mL. Besides, in the assay with bovine serum albumin, the binding result is “no binding (tested: 1.0 µg/mL)”. In addition, in assay [4], the Kd is 0.261 nM, the koff is 0.000121 s⁻¹ and the kon is 464000 M⁻¹ s⁻¹.

B4: antibody 2A6 (antibody, human IgG1, V domains shown)
VH: EVQLVESGGGLVKPGDSLTVSCVASGFTFSNYFIHWVRQAPGKGLEWVATISGRTKYMFYSDSLRGRFTVSRDNANNSVYLHMSSLRGEDTALYYCVRGYDHSDSNSAADLLHWGRGTLVTVSS
VL: NFMLTQPLSVSGYPGKTIVISCVRSSGSVASHYVQWFQQRPGSAPAMVIYEDSHRPSGIPDRFSGSVDASSNSASLTISGLKTEDEADYFCQSYYGNNQVLFGGGTKLTVL
modifications: partial N-linked glycosylation at Asn-76 of the VH
notes: Human antibody from a single B cell, cloned into human IgG1 lambda expression vectors and made in FreeStyle 293-F cells
Consider B4, for which, in assay [3], the “IC50, inhibition” value came to 3.4 ng/mL and the “IC90, inhibition” value stood at 3850 ng/mL. In addition, the binding result with bovine serum albumin is “no binding (tested: 1.0 µg/mL)”. Moreover, in assay [4], the Kd worked out at 0.0368 nM, the koff came to 3.97e-05 s⁻¹ and the kon stood at 1.08e+06 M⁻¹ s⁻¹. Also, the “EC50 (read off the curve)” value in assay [1] is approximately 7 ng/mL. Further, in assay [2], the Kd was found to be 0.0187 nM, the koff is 4.9e-05 s⁻¹ and the kon stood at 2.61e+06 M⁻¹ s⁻¹. Moreover, in assay [5], the “EC50 (read off the curve)” value was approximately 5 ng/mL.

B5: antibody AB (antibody, human IgG1, V domains shown)
VH: B4 VH
VL: B2 VL
notes: Combination of the 2A6 VH heavy chain and the 2B6 VL light chain; human IgG1 lambda; also called VH2A6/VL2B6
On to B5, for which, in the assay with bovine serum albumin, the binding result is recorded as “no binding (tested: 1.0 µg/mL)”. In addition, the “EC50 (read off the curve)” value in assay [1] is approximately 7 ng/mL. Moreover, in assay [2], the Kd was determined as 0.025 nM, the koff was found to be 5.46e-05 s⁻¹ and the kon is 2.19e+06 M⁻¹ s⁻¹. The “EC50 (read off the curve)” value in assay [5] is approximately 5 ng/mL.

B6: antibody BA (antibody, human IgG1, V domains shown)
VH: B2 VH
VL: B4 VL
notes: Combination of the 2B6 VH heavy chain and the 2A6 VL light chain; human IgG1 lambda; also called VH2B6/VL2A6
As to B6, the binding result with bovine serum albumin was “no binding (tested: 1.0 µg/mL)”.

B7: antibody 2A6_A (antibody, human IgG1, V domains shown)
VH: B4 VH with N76A
VL: B4 VL
notes: removes the N-glycosylation site of the VH; human IgG1 lambda; also called c2A6_A
For the molecule B7, the “EC50 (read off the curve)” value in assay [1] was approximately 7 ng/mL. For the same molecule, in assay [2], the Kd was found to be 0.0223 nM, the koff was found to be 5.17e-05 s⁻¹ and the on-rate constant (kon) turned out to be 2.32e+06 M⁻¹ s⁻¹. The “EC50 (read off the curve)” value in assay [5] is approximately 5 ng/mL.

B8: antibody 2A6_Q (antibody, human IgG1, V domains shown)
VH: B4 VH with N76Q
VL: B4 VL
notes: removes the N-glycosylation site of the VH; human IgG1 lambda; also called c2A6_Q
In the case of B8, the “EC50 (read off the curve)” value in assay [1] is approximately 7 ng/mL. In assay [2], the Kd is 0.0217 nM, the koff worked out at 5.23e-05 s⁻¹ and the kon amounted to 2.41e+06 M⁻¹ s⁻¹. The “EC50 (read off the curve)” value in assay [5] is approximately 5 ng/mL.
